Source: article PMC2645672, “Mechanism of Neuronal versus Endothelial Cell Uptake of Alzheimer's Disease Amyloid β Protein” (PLoS ONE, 2009)

Key:
[1] = system: wild type (WT) mouse brain slices; conditions: cited from earlier work
Description: The uptake of ^125I-Aβ40 in WT mouse brain slices at 4 or 37°C was determined following 15 min incubation in oxygenated KRB containing 5–900 ng/ml (0.02–3.5 µCi/ml) concentrations of ^125I-Aβ40. The 15 min incubation time was selected based on our earlier observations that ^125I-Aβ40 uptake in the brain slices was linear up to 15 mi ...

[2] = system: differentiated PC12 cells; conditions: cited from earlier work
[3] = system: differentiated PC12 cells
[4] = system: bovine brain microvascular endothelial (BBME) cells; test: Cellular uptake by flow cytometry in BBME cells; conditions: F-Aβ40 and AF633-Trf simultaneously, cells trypsinized
Description: Bovine brain microvascular endothelial (BBME) cells were obtained frozen from Cell Applications Inc. (San Diego, CA) and were grown in 75 cm^2 cell culture flasks coated with collagen. The growth medium was made of equal parts DMEM and F-12 Ham nutrient mix containing amphotericin B (2.5 µg/ml), HEPES (10 mM), donor horse serum (10%), penicillin (100 units/ml), and gentamicin sulphate (15 µm/ml). After reaching 70–80% confluency, the cells were harvested, seeded (80,000 cells/cm^2) on six-well cell culture plates coated with 0.01% rat tail collagen, and grown under 5% CO2 at 37°C.
(§1) In addition, flow cytometry studies were conducted to quantify the uptake of F-Aβ40 or F-Aβ42 and AF633-Trf by PC12 cells and BBME cells at 4°C or under ATP depleted conditions. At the end of these flow cytometry experiments, the cells were washed three times with ice-cold PBS, trypsinized, and centrifuged at 2000 ×g. The cell pellet was washed with and re-suspended in ice cold PBS, and analyzed.
(§2) FACScan (Becton Dickinson FACS canto, San Jose, CA) was equipped with 488 nm laser and 530/30 band-pass filter to analyze F-Aβ40 or F-Aβ42 as well as 633 nm laser and 660/20 band-pass filter to analyze AF633-Trf. […] The cellular fluorescence from this cell population was presented as histograms along with relevant statistical values such as geometric mean and coefficient of variance.

[5] = system: differentiated PC12 cells; test: Cellular uptake by flow cytometry in differentiated PC12 cells; conditions: for Uptake at 4°C versus 37°C (histograms of cellular fluorescence), F-Aβ42 experiment: 15 µg/ml F-Aβ42 and 20 µg/ml AF633-Trf, 30 min, cells trypsinized
Description: Rat PC12 cells were plated on glass coverslips or coverslip-bottomed dishes and cultured in DMEM supplemented with: 10% fetal bovine serum, 5% horse serum, 4 mM glutamine, 200 units/ml penicillin, 200 µg/ml streptomycin, and 100 ng/ml nerve growth factor (NGF) (Harlan, Indianapolis, IN) at 37°C under 5% CO2. Uptake studies were conducted 5–7 days after plating, when the cells were well differentiated and the neurite growth was prominent.
The PC12 cells were dispersed in growth medium containing 100 ng/ml NGF (Harlan Bioproducts, Indianapolis, IN) and seeded at a density of 50,000/well in 6-well plates. On the seventh day, following sets of experiments were conducted on the differentiated PC-12 cells:
• To determine the linearity of F-Aβ40 uptake, PC-12 cells were pre-incubated in serum free DMEM for 30 min at 37°C and then incubated with DMEM solution containing 3–15 µg/ml F-Aβ40 for 30 min at 37°C. • To determine the saturability of F-Aβ40 uptake, the PC-12 cells were pre-incubated in 150 µg/ml of unlabeled Aβ40 for 30 min at 37°C, followed by a 30 min incubation in the same solution spiked with 15 µg/ml F-Aβ40.
At the end of these experiments, the cells were dissociated with trypsin and centrifuged at 2000 ×g. The cell pellet was washed with and re-suspended in ice cold PBS and analyzed by flow cytometry.
To examine the effect of temperature and cellular energy on the internalization of F-Aβ40 and F-Aβ42, the uptake studies were conducted at 4°C or under ATP depleted conditions. In the studies conducted at 4°C, steps outlined previously to investigate clathrin mediated endocytosis were repeated, but at 4°C. In ATP depletion studies, the PC12 cells or RPH neurons were pre-incubated for 30 min in glucose free DMEM containing 0.1% sodium azide and 50 mM 2-deoxy-D-glucose followed by the incubation with glucose free DMEM containing 20 µg/ml AF633-Trf and 15 µg/ml F-Aβ40 for 30 min at 37°C.
as §1, §2

[6] = system: differentiated PC12 cells; test: Cellular uptake and localization by microscopy in differentiated PC12 cells; conditions: F-Aβ40 and AF633-Trf co-incubated, confocal

125I-Aβ40: human Aβ40 labeled with 125I using the chloramine-T procedure
Time course of uptake in brain slices [1]: linear up to 15 min
Dependence of internalization by differentiated PC12 cells on donor concentration [2]: linearly dependent upon the donor concentration
Internalization by differentiated PC12 cells at 4°C [2]: internalized even at 4 °C

AF633-Trf: Alexa Fluor 633 labeled transferrin, a clathrin mediated endocytosis marker [reference compound]
Uptake in ATP depleted cells versus normal cells (microscopy) [3]: no detectable
Cellular uptake in BBME cells at 4°C compared to 37°C (fluorescence intensities) [4]: decreased significantly
Uptake at 4°C versus 37°C (histograms of cellular fluorescence), F-Aβ42 experiment [5]: significantly lower
Cellular location after 15 min incubation [6]: juxta-nuclear region

F-Aβ40: fluorescein labeled human Aβ40
Uptake in cells treated with filipin, inhibitor of caveolae mediated endocytosis [3]: not significantly affected
Cellular uptake in BBME cells at 4°C compared to 37°C (fluorescence intensities) [4]: decreased significantly
Fluorescence intensity on co-incubation with unlabeled Aβ40 compared to F-Aβ40 alone (saturability) ([5]; 150 µg/ml unlabeled Aβ40 + 15 µg/ml F-Aβ40 vs 15 µg/ml F-Aβ40 alone, 37°C): decreased
Dependence of accumulation on donor concentration ([5]; donor concentrations 3-15 µg/ml, 30 min at 37°C): linear with the donor concentrations
Cellular location after 15 min incubation [6]: mainly confined to the cell membrane
Cellular location at the end of 45 min incubation ([6]; 45 min): appeared to move into the cytosol
Intensity in the cells by the end of 60 min incubation ([6]; 60 min): increased substantially

F-Aβ42: fluorescein labeled Aβ42
Uptake at 4°C versus 37°C (histograms of cellular fluorescence), F-Aβ42 experiment [5]: not significantly different
